Experimental data reported in patent publication WO2022034912A1 (dated 2022).

T1: biotinylated hTRPV2 (hTRPV2 full-length expression vector with Myc-Biotinylation-His tag, expressed in HEK293 … (human, UniProt Q9Y5S1 1-764, biotinylated on the tag (Myc-Biotin-His tag)))
T1 construct: also called biotinylated hTRPV2-expressing HEK293 cells; not shown: Myc-Biotinylation-His tag
T1 sequence: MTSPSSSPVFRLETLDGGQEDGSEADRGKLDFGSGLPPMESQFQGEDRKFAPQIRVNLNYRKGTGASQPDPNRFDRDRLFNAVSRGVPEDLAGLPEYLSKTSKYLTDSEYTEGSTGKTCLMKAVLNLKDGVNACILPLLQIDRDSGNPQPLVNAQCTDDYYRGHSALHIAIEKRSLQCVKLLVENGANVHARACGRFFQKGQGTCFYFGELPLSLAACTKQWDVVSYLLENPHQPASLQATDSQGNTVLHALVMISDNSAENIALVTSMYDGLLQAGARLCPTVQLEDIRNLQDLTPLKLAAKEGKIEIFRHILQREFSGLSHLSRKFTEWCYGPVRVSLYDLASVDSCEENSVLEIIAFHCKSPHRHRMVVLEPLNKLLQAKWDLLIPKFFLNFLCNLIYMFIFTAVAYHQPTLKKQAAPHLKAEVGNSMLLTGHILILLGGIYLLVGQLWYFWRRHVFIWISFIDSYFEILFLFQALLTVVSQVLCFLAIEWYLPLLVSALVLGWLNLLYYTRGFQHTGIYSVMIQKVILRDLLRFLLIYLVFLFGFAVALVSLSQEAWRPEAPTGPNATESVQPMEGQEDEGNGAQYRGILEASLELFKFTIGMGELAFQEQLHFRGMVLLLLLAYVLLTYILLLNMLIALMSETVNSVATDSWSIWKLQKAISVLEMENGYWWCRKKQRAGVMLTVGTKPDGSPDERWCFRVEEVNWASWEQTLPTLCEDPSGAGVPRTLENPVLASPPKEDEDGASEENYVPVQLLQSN

T2: hTRPV2 extracellular domain-biotin (572-609) (human, biotin added with the lysine residue at the C-terminus)
T2 construct: Synthetic polypeptide, analyte in the SPR measurement; also called hTRPV2 extracellular domain (572-609)
T2 peptide: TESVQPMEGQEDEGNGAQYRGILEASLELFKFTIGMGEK

T3: human TRPV2 (transient receptor potential cation channel, subfamily V, member 2) (human, UniProt Q9Y5S1 1-764)
T3 sequence: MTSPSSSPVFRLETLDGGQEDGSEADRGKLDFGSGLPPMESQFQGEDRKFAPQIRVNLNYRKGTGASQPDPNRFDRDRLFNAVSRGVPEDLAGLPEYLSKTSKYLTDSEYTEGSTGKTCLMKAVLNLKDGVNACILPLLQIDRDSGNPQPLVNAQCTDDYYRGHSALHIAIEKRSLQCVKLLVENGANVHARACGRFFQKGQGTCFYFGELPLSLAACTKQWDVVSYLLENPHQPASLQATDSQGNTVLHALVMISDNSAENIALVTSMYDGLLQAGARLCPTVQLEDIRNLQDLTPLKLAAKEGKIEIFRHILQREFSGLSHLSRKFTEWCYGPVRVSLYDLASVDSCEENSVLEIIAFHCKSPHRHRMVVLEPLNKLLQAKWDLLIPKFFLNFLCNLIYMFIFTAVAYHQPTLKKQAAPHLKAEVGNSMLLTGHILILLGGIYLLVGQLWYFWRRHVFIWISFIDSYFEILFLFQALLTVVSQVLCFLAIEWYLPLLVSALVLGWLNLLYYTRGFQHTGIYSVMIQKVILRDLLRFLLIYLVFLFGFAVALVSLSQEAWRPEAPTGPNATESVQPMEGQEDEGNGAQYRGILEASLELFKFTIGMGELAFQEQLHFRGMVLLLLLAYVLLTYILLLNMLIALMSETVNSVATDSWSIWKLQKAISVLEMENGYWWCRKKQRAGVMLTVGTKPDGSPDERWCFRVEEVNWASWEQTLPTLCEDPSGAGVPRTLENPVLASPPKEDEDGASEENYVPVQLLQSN

T4: mouse TRPV2 (mouse, UniProt Q9WTR1 1-756)
T4 construct: whole, on cells; In the Western blot solubilised from the cells; also called mTRPV2; mTRPV2-expressing HEK293 cells
T4 sequence (looked up): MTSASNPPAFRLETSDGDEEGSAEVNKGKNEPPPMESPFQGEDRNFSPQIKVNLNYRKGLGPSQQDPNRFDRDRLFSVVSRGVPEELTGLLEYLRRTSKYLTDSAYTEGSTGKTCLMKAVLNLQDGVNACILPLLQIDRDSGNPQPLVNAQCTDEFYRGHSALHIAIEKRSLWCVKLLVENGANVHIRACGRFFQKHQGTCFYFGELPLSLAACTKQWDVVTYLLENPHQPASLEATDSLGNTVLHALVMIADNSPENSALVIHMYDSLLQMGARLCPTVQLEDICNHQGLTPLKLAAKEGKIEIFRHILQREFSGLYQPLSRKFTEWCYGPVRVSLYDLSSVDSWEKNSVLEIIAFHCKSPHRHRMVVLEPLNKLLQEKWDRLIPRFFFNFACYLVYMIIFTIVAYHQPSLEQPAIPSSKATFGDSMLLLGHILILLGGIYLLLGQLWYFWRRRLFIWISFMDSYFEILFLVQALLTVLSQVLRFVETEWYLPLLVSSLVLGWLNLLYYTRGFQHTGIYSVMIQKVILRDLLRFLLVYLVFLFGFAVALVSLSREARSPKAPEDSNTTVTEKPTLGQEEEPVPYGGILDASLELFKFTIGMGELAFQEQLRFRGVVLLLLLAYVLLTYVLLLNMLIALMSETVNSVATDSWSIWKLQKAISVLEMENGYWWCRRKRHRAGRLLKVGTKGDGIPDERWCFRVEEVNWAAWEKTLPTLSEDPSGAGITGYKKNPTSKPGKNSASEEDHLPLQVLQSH


Legend:
[1] = target: T1, biotinylated hTRPV2 (hTRPV2 full-length …); test: flow cytometry on hTRPV2-expressing 293 cells, purified IgG
[2] = target: T2, hTRPV2 extracellular domain-biotin …; test: SPR (Biacore T200), antibody captured on anti-mouse IgG(Fc), peptide 10-1000 nM as analyte, 1:1 model
[3] = target: T3, human TRPV2 (transient receptor …); test: cell-based or functional assay
mouse TRPV2 = target: T4, mouse TRPV2; test: Western blot of solubilised mTRPV2-expressing HEK293 cells

Binder	binding result [1]	other results
humanized mAb002 antibody (VH14+VL1) (antibody, V domains shown, Full-length human IgG made in Expi293F cells) VH: QVQLQESGPGLVKPSQSLSLTCTVSGFSLTSFGIHWIRQPPGKGLEWIGVIWSGGITHYNSALMSRVSISKDTSKNQVFLKLSSVTAADTAMYYCAKLYSHPHAMDYWGQGTLVTVSS VL: DIVMTQSPLSLPVTPGEPASISCRSSKSLLHSNGITYLYWYLQKPGQSPQLLIYRMSNLASGVPDRFSGSGSGTDFTLKISRVEAEDVGVYYCMQHLEYPLTFGGGTKLEIK	binds	
humanized mAb002 antibody (VH15+VL1) (antibody, V domains shown, Full-length human IgG made in Expi293F cells) VH: QVQLQESGPGLVKPSQSLSLTCTVSGFSLTSFGIHWIRQPPGKGLEWIGVIWSGGITHYNSALMSRVSISKDTSKNQVSLKLSSVTAADTAMYYCAKLYSHPHAMDYWGQGTLVTVSS VL: DIVMTQSPLSLPVTPGEPASISCRSSKSLLHSNGITYLYWYLQKPGQSPQLLIYRMSNLASGVPDRFSGSGSGTDFTLKISRVEAEDVGVYYCMQHLEYPLTFGGGTKLEIK	binds	
humanized mAb002 antibody (VH13+VL1) (antibody, V domains shown, Full-length human IgG made in Expi293F cells) VH: QVQLKQSGPGLVAPSQSLSITCTVSGFSLTSFGIHWIRQPPGKGLEWIGVIWSGGITHYNSALMSRLSISKDTSKNQVFLKLSSVTAADTAMYYCAKLYSHPHAMDYWGQGTLVTVSS VL: DIVMTQSPLSLPVTPGEPASISCRSSKSLLHSNGITYLYWYLQKPGQSPQLLIYRMSNLASGVPDRFSGSGSGTDFTLKISRVEAEDVGVYYCMQHLEYPLTFGGGTKLEIK	binds	
anti-human TRPV2 IgG antibody mAb001 (01a033) (antibody, V domains shown, Mouse IgG: VH joined to mouse CH1,2,3 and VL to CK, made in CHO-K1 cells, purified on Protein A; also called anti-hTRPV2 antibody (mAb001)) VH: QVQLKESGPDLVQPSQTLSLTCTVSGFSLTTYGVHWVRQPPGKGLEWVGTMGWDGKKYYNSALKSRLSISRDTSKNQVFLKLSSLQTEDTAMYYCTRDGGYTWFAYWGQGTLVTVSA VL: NIVMTQSPSSLAVSAGEKVTMSCKSSQSLLNSRTRKNYLAWYQQKPGQSPKLLIYWASTRESGVPDRFTGSGSGTDFTLTISSVQAEDLAVYYCKQSYNLFTFGGGTKLEIK		Kd [2]: 0.188 µM
anti-human TRPV2 IgG antibody mAb002 (02a001) (antibody, V domains shown, Mouse IgG: VH joined to mouse CH1,2,3 and VL to CK, made in CHO-K1 cells, purified on Protein A; also called anti-hTRPV2 antibody (mAb002)) VH: QVQLKQSGPVLVAPSQSLSITCTVSGFSLTSFGIHWVRQPPGKGLEWLGVIWSGGITHYNSALMSRLSISKDNSKSQVFLKMNSLQTDDTAMYYCAKLYSHPHAMDYWGQGTSVTVSS VL: DIVMTQAAPSVPVTPGESVSISCRSSKSLLHSNGITYLYWFLQRPGQSPQLLIYRMSNLASGVPDRFSASGSGTAFTLRISRVEAEDVGVYYCMQHLEYPLTFGAGTKLELK		IC50 of the inhibition of Ca 2+ influx into hTRPV2-expressing HEK293 cells (Cal520 fluorescence, cannabidiol and probenecid stimulation) [3]: 0.0089 µM; binding result (mouse TRPV2): no binding (tested: 500-fold dilution); Kd [2]: 0.0192 µM

Further lines, with some results ahead:

binding result [1]	Binder	other results
binds	humanized mAb002 antibody (VH16+VL1) (antibody, V domains shown, Full-length human IgG made in Expi293F cells) VH: QVQLQESGPGLVAPSQTLSLTCTVSGFSLTSFGIHWIRQPPGKGLEWIGVIWSGGITHYNSALMSRVSISKDTSKNQVFLKLSSVTAADTAMYYCAKLYSHPHAMDYWGQGTLVTVSS VL: DIVMTQSPLSLPVTPGEPASISCRSSKSLLHSNGITYLYWYLQKPGQSPQLLIYRMSNLASGVPDRFSGSGSGTDFTLKISRVEAEDVGVYYCMQHLEYPLTFGGGTKLEIK	
binds	humanized mAb002 antibody (VH12+VL1) (antibody, V domains shown, Full-length human IgG made in Expi293F cells) VH: QVQLQESGPGLVKPSQSLSLTCTVSGFSLTSFGIHWIRQPPGKGLEWIGVIWSGGITHYNSALMSRVSISKDNSKNQVFLKMNSVTAADTAMYYCAKLYSHPHAMDYWGQGTLVTVSS VL: DIVMTQSPLSLPVTPGEPASISCRSSKSLLHSNGITYLYWYLQKPGQSPQLLIYRMSNLASGVPDRFSGSGSGTDFTLKISRVEAEDVGVYYCMQHLEYPLTFGGGTKLEIK	
